# B1: Human perlecan Domain V (DV), recombinant, with C-terminal 6×His tag (ligand)
# chain: EIKITFRPDSADGMLLYNGQKRVPGSPTNLANRQPDFISFGLVGGRPEFRFDAGSGMATIRHPTPLALGHFHTVTLLRSLTQGSLIVGDLAPVNGTSQGKFQGLDLNEELYLGGYPDYGAIPKAGLSSGFIGCVRELRIQGEEIVFHDLNLTAHGISHCPTCRDRPCQNGGQCHDSESSSYVCVCPAGFTGSRCEHSQALHCHPEACGPDATCVNRPDGRGYTCRCHLGRSGLRCEEGVTVTTPSLSGAGSYLALPALTNTHHELRLDVEFKPLAPDGVLLFSGGKSGPVEDFVSLAMVGGHLEFRYELGSGLAVLRSAEPLALGRWHRVSAERLNKDGSLRVNGGRPVLRSSPGKSQGLNLHTLLYLGGVEPSVPLSPATNMSAHFRGCVGEVSVNGKRLDLTYSFLGSQGIGQCYDSSPCERQPCQHGATCMPAGEYEFQCLCRDGFKGDLCEHEENPCQLREPCLHGGTCQGTRCLCLPGFSGPRCQQGSGHGIAESDWHLEGSGGNDAPGQYGAYFHDDGFLAFPGHVFSRSLPEVPETIELEVRTSTASGLLLWQGVEVGEAGQGKDFISLGLQDGHLVFRYQLGSGEARLVSEDPINDGEWHRVTALREGRRGSIQVDGEELVSGRSPGPNVAVNAKGSVYIGGAPDVATLTGGRFSSGITGCVKNLVLHSARPGAPPPQPLDLQHRAQAGANTRPCPSHHHHHH
# notes: Cloned from HUVEC cDNA into pSecTag2A or pCepPu, secreted from 293 cells and purified on Ni beads; also called endorepellin; rhDV
# Key:
# [1] = biological target: T1, α5β1 integrin protein, covalently immobilised on the optical biosensor cuvette; assay: optical biosensor (IAsys), α5β1 immobilised, DV free in solution
# T1 construct: The methods call the immobilised protein 'the α5β1 protein' and also 'immobilized α5'; The results speak of α5β1 integrin; also called α5β1 protein; immobilized α5 integrin
# Description: (§1) Binding assays were carried out using an optical biosensor (IAsys; Affinity Sensors, UK) as described¹⁰⁸. In brief, to covalently bind the α5β1 protein, designated as an acceptor, onto the surfaces of a sensor, carboxylate groups present on the surface were activated by injection of a 1:1 mixture of 0.1 M N-hydroxysuccinimide and 0.4 M N-Ethyl-3-(3-dimethylaminopropyl) carbodiimide (Pierce). The acceptor dissolved in phosphate buffered saline (PBS) was then allowed to bind to the activated surface until a response plateau was reached. The residual active groups were blocked by an injection of 100 μL of 1 M Tris-HCl (pH 8.5).
# (§2) The binding of DV to α5β1 was also investigated. DV's DGR sequence was mutated to AGR (D3904A) to determine whether this could disrupt DV binding to α5β1 as measured with optical biosensor (FIG. 18A).
# [2] = biological target: T1, α5β1 integrin protein, covalently …; assay: optical biosensor (IAsys), α5β1 immobilised, DV free in solution; Kd from Koff/Kon
# Description: as §1, §2
binder,measurement,setting,value
B1,koff,[1],0.72 s⁻¹
same,Kd,[2],160 nM
